The supplement of paper PMC9170038

System: MS2 coat protein
Assay: apparent KD of MS2 coat protein; designed switch direction (-1 OFF switch, 1 ON switch): -1; higher = weaker reporter binding
Method in brief: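 On Illumina chips, designed RNA switches with common flanks were made by stalled E. coli RNA polymerase. Titrations with SNAP-549-labelled MS2 coat protein, doubling from 0.7 or 1.5 nM to 3 µM, were done with no input, with 200 uM small-molecule ligand, or with an oligonucleotide input. Apparent KD is the median per design over clusters, from curve fits of normalised cluster fluorescence.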

[1] = Eterna round: R95, input ligand: FMN 200 uM
[2] = Eterna round: R95, input ligand: microRNA oligo, concentration not stated
[3] = Eterna round: R95, input ligand: none
[4] = input ligand: microRNA oligo, concentration not stated

Sequence	apparent KD of MS2 coat protein [1] [nM]	apparent KD of MS2 coat protein [2] [nM]	apparent KD of MS2 coat protein [3] [nM]	apparent KD of MS2 coat protein (input ligand: FMN 200 uM) [nM]	apparent KD of MS2 coat protein [4] [nM]	apparent KD of MS2 coat protein (input ligand: none) [nM]
UUACUAUGCCGCCUAAUAGCUUUUUGCUCGUCUUAUAUUACAUGAGGAUCACCCAUGUAGAUCAUGUGGCGUGACCU [JL ViennaUCT Maridi mod 3] (puzzle: Sensor v3, turn-off variant 2)	216	42	206			
UUAGAUAGGUCAGGAUAUCGAUGAUUGAAUAGUAUGAUUUACAUGAGGAUCACCCAUGUUUUGUACGAGAAGGGACGUUAGAUU [JR_ExcNG2_Sub020] (Eterna round: R96, puzzle: Exclusion NG 2)				26.9	22.6	28.5
UUAGAUAGGUCAGGAUAUCGAUGAUUGAAUUGUAUGAUUUACAUGAGGAUCACCCAUGUUUUGUACGAGAAGGGACGUUAGAUU [JR_ExcNG2_Sub018] (Eterna round: R96, puzzle: Exclusion NG 2)				26.7	17.6	37.2
UUAGCGCGAGGAUAUGCGGUUUGUGCUUUGGGCCCUGGCGUACAUGAGGAUCACCCAUGUAGAAGGCGUGUUGU [Apr-15 SS2-50] (puzzle: Exclusion 2)		20.7				
UUAGGCGUCAUUGCUCGUCUUUUAUGGAGAUGACUGUUAACAUGAGGAUCACCCAUGUGUGUGGGAGCUUUGCAGUU [JR_SV3TOV2_Sub023] (puzzle: Sensor v3, turn-off variant 2)	213	568	270			
UUAGUGUUAGGAUAUAAUCAUAUAAGCUGUAAGGUGUAUGAUUAGAAGGGACAUGAGGAUCACCCAUGUCGUGA [Eternabot (L1) Solution 94] (Eterna round: R97, puzzle: Exclusion 4)				23.1		20.1
UUAUAAAGUGUGAGGAUAUGCUGGUCCUUGGAUCAGCAGAAGGCACAUGAGGAUCACCCAUGUAAUAUAUUUUU [JL bmx4 3.08] (puzzle: Brourd's mod of Exclusion 4)		68.2				
UUAUAACAUGAGGAUCACCCAUGUUAGGAUAUCAGGUACGAGCGCCGUGCUCAGGCCCUGAGAAGGAGCAUGGC [Eternabot (L1) Solution 36] (Eterna round: R97, puzzle: Exclusion 1)				14.9		18.6
UUAUACAAGCAAAGAUCCCACAUGAGGAUCACCCAUGUGCUCGUCUUAUAAGGUACUGUGACGAAAGUCACGGUACC [Eli 87 + Mat D67 6] (Eterna round: R97, puzzle: Sensor, turn-off variant 1)				42.3		41.6
UUAUUAAAUGUAGGAUAUGCAUAUUAUUAUUAUGCAGAAGGACAUGAGGAUCACCCAUGUAUAUUAUUAUUAUUUAUUAUUUAU [Title] (Eterna round: R96, puzzle: Exclusion NG 1)					35.5	
UUAUUACAAGCAAGAUCCCACAUGAGGAUCACCCAUGUGCUCGUCUUAUAAGGUACUGUGACGAAAGUCACGGUACC [Sensor 3, v1 - 100] (Eterna round: R96, puzzle: Sensor v3, turn-off variant 1)				26.3	547	24.6
UUAUUACAAGCAAGAUCCCACAUGAGGAUCACCCAUGUGCUCGUCUUAUAAGGUACUGUGACGAAAGUCACGGUACC [Sensor 3, v1 - 100] (puzzle: Sensor v3, turn-off variant 1)	25.8	701	24.7			
UUAUUAUAUGUAGGAUAUGCAUAUUGUUGUUAUGCAGAAGGACAUGAGGAUCACCCAUGUAUAUUGUUGUUGUAUAUUAUAUAU [Title] (Eterna round: R96, puzzle: Exclusion NG 1)				33.2	22.6	23.3
UUAUUAUAUGUAGGAUAUGCGUAUUGUUGUUAUGCAGAAGGACAUGAGGAUCACCCAUGUAUAUUAUUGUUAUAUAUUAUAUAU [Title] (Eterna round: R96, puzzle: Exclusion NG 1)				43	20.2	25.3
UUAUUCAGAGGAUAUGCGCAUAGAUAAGACUUUUUUUUUUAACAUGAGGAUCACCCAUGUAGAAGGCUGUAAUU [Ex2 #55] (Eterna round: R97, puzzle: Exclusion 2)				18.1		21
UUAUUGUAUGUAGGAUAUGCGUAUUAUUAUUGGGCAGAAGGACAUGAGGAUCACCCAUGUAUGUUGUUGUUAUAUAUUAUAUAU [Title] (Eterna round: R96, puzzle: Exclusion NG 1)				61	39.3	47.6

Sequence	apparent KD of MS2 coat protein [1] [nM]	apparent KD of MS2 coat protein [2] [nM]	apparent KD of MS2 coat protein [3] [nM]	apparent KD of MS2 coat protein (input ligand: FMN 200 uM) [nM]	apparent KD of MS2 coat protein [4] [nM]	apparent KD of MS2 coat protein (input ligand: none) [nM]
UUAUUGUGAGGAUAUCAGGUGUGCUAGCGUACUGGUACAUCUGAGAAGGCACAUGAGGAUCACCCAUGUUCCUU [JL-ex4-3.26 Brourd mod] (puzzle: Exclusion 4)		14.4				
UUCAGUCUAGAGGAUAUGCUGGAUUAAUAUCUGGCAGAAGGCUGGACAUGAGGAUCACCCAUGUAAAUACUACC [Omei Ex6 A5] (Eterna round: R97, puzzle: Exclusion 6)				356		68.3
UUCAUUGCAGGAUAUACAUGAGGAUCACCCAUGUGACCAGUGGCCUGUUGCGGCUCCAGUAGAAGGGCAUGUGU [Eternabot (L2) Solution 89] (Eterna round: R97, puzzle: Exclusion 3)				63.8		61.2
UUCCGGCAUGUAGGAUAUGGAUCCGAUUAGGAUUUAGAAGGACAUGAGGAUCACCCAUGUGCAUUUAAUUAGUCAUUACCGUUU [EXclNG1-LROPPY06] (Eterna round: R96, puzzle: Exclusion NG 1)					34.4	
UUCCUCACUUCUUUGACUCACAUGAGGAUCACCCAUGUAAUAUAGGAUAUGCAUUUUAUUUCUUUGCAGAAGGAUAUUAGUUUU [JR_ExcNG3_Sub088] (Eterna round: R96, puzzle: Exclusion NG 3)					34.7	
UUCGCGGAAGGAUAUACAUGAGGAUCACCCAUGUGCUUAUGCGCAACAGCUUCGCAGUGUAGAAGGUUCAGAGU [Eternabot (L1) Solution 3] (Eterna round: R97, puzzle: Exclusion 3)				18.9		23.4
UUCUUACAUGAGGAUCACCCAUGUCAGGAUAUCUCCACACUGCGCUUGCGCAGUGUAUAGAGAAGGGACAGGCU [JL ViennaUCT Aner mod 5] (puzzle: Exclusion 1)		40.7				
UUCUUACAUGAGGAUCACCCAUGUCAGGAUAUCUCCUCACUGCGCUUGCGCAGUGGAUAGAGAAGGGACAGGCU [JL ViennaUCT Aner mod 3] (puzzle: Exclusion 1)		43.1				
UUCUUUAUACGAGGAUAUCAUACAUGAGGAUCACCCAUGUGGCUGGGUCUGUUUUUAUAUAUUAUUGAGAAGGCGUUUUUCUUU [JR_ExcNG2_Sub074] (Eterna round: R96, puzzle: Exclusion NG 2)				197	50.5	86.7
UUGAUGUGAGGAUAUAUUUUUUUUUUUCUUUAUGUUUUAUAACUUGAGGAUCACCCAAGUAGAAGGCGCUACGU [JR_Ex2_Sub064] (Eterna round: R97, puzzle: Exclusion 2)				51.7		30.5
UUGCUACCUUGGUACUCUACAAGCUUUUUGCUCGUUUUAACAUGAGGAUCACCCAUGUCUAGUGGAUCUGAUCGGGU [JL ViennaUCT Isreen mod 3] (puzzle: Sensor v3, turn-off variant 2)	87.4	197	77.5			
UUGGACGGAGGAUAUGCAGCGAGUAAUACGAUCGAUCCAAAACAUGAGGAUCACCCAUGUAGAAGGCUGACCAA [Eternabot (L1) Solution 11] (Eterna round: R97, puzzle: Exclusion 2)				174		71.2
UUGGAGAUAGGAUAUACGAGGAGAGUAGAGGGAAGGUGAGGACAUGAGGAUCACCCAUGUAGAAGGAUCAGGAG [JR_Exclu2_Sub067] (puzzle: Exclusion 2)	34.8	34.8	47.6			
UUGGAUGUUGAGGAUAUGCUUUUUUUUAUUAUAGCAGAAGGCGAUACAUGAGGAUCACCCAUGUUCAUGGCUUU [JR_E6_Sub099] (puzzle: Exclusion 6)	14.5	13.7	14.6			
UUGGUUGUGGUAGGAUAUCCGUUGGAAACCGUUGGAGAAGGACCACAGUCACUGGGUCUUUGUUUGGUGGAGUGGAAGAACCAU [pwkr exNG1 F6.19] (Eterna round: R96, puzzle: Exclusion NG 1)				1020	210	349
